Assay results from patent US20170096485A1 (Hoffmann-La Roche, published 2017).

B1: MSLN TCB molecule E: '1+1 IgG CrossFab, inverted' with charge modifications (bispecific antibody)
heavy: not shown
light 1: EVQLLESGGGLVQPGGSLRLSCAASGFTFSTYAMNWVRQAPGKGLEWVSRIRSKYNNYATYYADSVKGRFTISRDDSKNTLYLQMNSLRAEDTAVYYCVRHGNFGNSYVSWFAYWGQGTLVTVSSASVAAPSVFIFPPSDEQLKSGTASVVCLLNNFYPREAKVQWKVDNALQSGNSQESVTEQDSKDSTYSLSSTLTLSKADYEKHKVYACEVTHQGLSSPVTKSFNRGEC
light 2: DIQMTQSPSSLSASVGDRVTITCSASSSVSYMHWYQQKSGKAPKLLIYDTSKLASGVPSRFSGSGSGTDFTLTISSLQPEDFATYYCQQWSKHPLTFGQGTKLEIKRTVAAPSVFIFPPSDRKLKSGTASVVCLLNNFYPREAKVQWKVDNALQSGNSQESVTEQDSKDSTYSLSSTLTLSKADYEKHKVYACEVTHQGLSSPVTKSFNRGEC
chain: DKTHTCPPCPAPEAAGGPSVFLFPPKPKDTLMISRTPEVTCVVVDVSHEDPEVKFNWYVDGVEVHNAKTKPREEQYNSTYRVVSVLTVLHQDWLNGKEYKCKVSNKALGAPIEKTISKAKGQPREPQVCTLPPSRDELTKNQVSLSCAVKGFYPSDIAVEWESNGQPENNYKTTPPVLDSDGSFFLVSKLTVDKSRWQQGNVFSCSVMHEALHNHYTQKSLSLSP
B2: MSLN TCB molecule C: '2+1 IgG CrossFab, inverted' without charge modifications (VH/VL exchange in CD3 binder) (bispecific antibody)
light: EVQLLESGGGLVQPGGSLRLSCAASGFTFSTYAMNWVRQAPGKGLEWVSRIRSKYNNYATYYADSVKGRFTISRDDSKNTLYLQMNSLRAEDTAVYYCVRHGNFGNSYVSWFAYWGQGTLVTVSSASVAAPSVFIFPPSDEQLKSGTASVVCLLNNFYPREAKVQWKVDNALQSGNSQESVTEQDSKDSTYSLSSTLTLSKADYEKHKVYACEVTHQGLSSPVTKSFNRGEC
chain 1: QVQLVQSGAEVKKPGASVKVSCKASGYSFTGYTMNWVRQAPGQGLEWMGLITPYNGASSYNQKFRGKATMTVDTSTSTVYMELSSLRSEDTAVYYCARGGYDGRGFDYWGQGTLVTVSSASTKGPSVFPLAPSSKSTSGGTAALGCLVKDYFPEPVTVSWNSGALTSGVHTFPAVLQSSGLYSLSSVVTVPSSSLGTQTYICNVNHKPSNTKVDKKVEPKSCDKTHTCPPCPAPEAAGGPSVFLFPPKPKDTLMISRTPEVTCVVVDVSHEDPEVKFNWYVDGVEVHNAKTKPREEQYNSTYRVVSVLTVLHQDWLNGKEYKCKVSNKALGAPIEKTISKAKGQPREPQVCTLPPSRDELTKNQVSLSCAVKGFYPSDIAVEWESNGQPENNYKTTPPVLDSDGSFFLVSKLTVDKSRWQQGNVFSCSVMHEALHNHYTQKSLSLSP
chain 2: not shown
chain 3: DIQMTQSPSSLSASVGDRVTITCSASSSVSYMHWYQQKSGKAPKLLIYDTSKLASGVPSRFSGSGSGTDFTLTISSLQPEDFATYYCQQWSKHPLTFGQGTKLEIKRTVAAPSVFIFPPSDEQLKSGTASVVCLLNNFYPREAKVQWKVDNALQSGNSQESVTEQDSKDSTYSLSSTLTLSKADYEKHKVYACEVTHQGLSSPVTKSFNRGEC
B3: MSLN TCB molecule F: '1+1 IgG CrossMab' with charge modifications (bispecific antibody)
heavy 1: QVQLVQSGAEVKKPGASVKVSCKASGYSFTGYTMNWVRQAPGQGLEWMGLITPYNGASSYNQKFRGKATMTVDTSTSTVYMELSSLRSEDTAVYYCARGGYDGRGFDYWGQGTLVTVSSASTKGPSVFPLAPSSKSTSGGTAALGCLVEDYFPEPVTVSWNSGALTSGVHTFPAVLQSSGLYSLSSVVTVPSSSLGTQTYICNVNHKPSNTKVDEKVEPKSCDKTHTCPPCPAPEAAGGPSVFLFPPKPKDTLMISRTPEVTCVVVDVSHEDPEVKFNWYVDGVEVHNAKTKPREEQYNSTYRVVSVLTVLHQDWLNGKEYKCKVSNKALGAPIEKTISKAKGQPREPQVCTLPPSRDELTKNQVSLSCAVKGFYPSDIAVEWESNGQPENNYKTTPPVLDSDGSFFLVSKLTVDKSRWQQGNVFSCSVMHEALHNHYTQKSLSLSP
heavy 2: not shown
light 1: EVQLLESGGGLVQPGGSLRLSCAASGFTFSTYAMNWVRQAPGKGLEWVSRIRSKYNNYATYYADSVKGRFTISRDDSKNTLYLQMNSLRAEDTAVYYCVRHGNFGNSYVSWFAYWGQGTLVTVSSASVAAPSVFIFPPSDEQLKSGTASVVCLLNNFYPREAKVQWKVDNALQSGNSQESVTEQDSKDSTYSLSSTLTLSKADYEKHKVYACEVTHQGLSSPVTKSFNRGEC
light 2: DIQMTQSPSSLSASVGDRVTITCSASSSVSYMHWYQQKSGKAPKLLIYDTSKLASGVPSRFSGSGSGTDFTLTISSLQPEDFATYYCQQWSKHPLTFGQGTKLEIKRTVAAPSVFIFPPSDRKLKSGTASVVCLLNNFYPREAKVQWKVDNALQSGNSQESVTEQDSKDSTYSLSSTLTLSKADYEKHKVYACEVTHQGLSSPVTKSFNRGEC

Legend:
[1] = target: T1, human mesothelin (human, UniProt Q13421 296-580); test: cell-based or functional assay
[2] = target: T1, human mesothelin; test: flow cytometry on MSLN-expressing AsPC-1 cells, 3.8 pM-300 nM, fit with GraphPad Prism6
Description: (§1) Briefly, Jurkat suspension cells were harvested, counted and checked for viability. Adherent AsPC-1 cells were harvested using Cell Dissociation Buffer (Gibco, #13151014), counted, checked for viability, and re-suspended at 0.9×10⁶ cells/ml in FACS buffer (100 μl PBS 0.1% BSA). […] Cells were re-incubated for further 30 min at 4° C. with the 1:100 pre-diluted AlexaFluor 647—F(ab′)₂ Fragment Goat Anti-Human IgG, Fey fragment specific secondary antibody (Jackson Immuno Research Lab, […] #109-096-008) and thereafter washed twice with cold PBS 0.1% BSA.
(§2) The stained cells were re-suspended in 100 μl 2% paraformaldehyde-containing FACS Buffer and incubated for 30 min at room temperature to fix the staining. Finally cells were centrifuged for 4 min at 350×g and 4° C., the supernatants were discarded and the cell pellets re-suspended in 200 μl FACS Buffer. Staining was analyzed by FACS using a FACS Canto II (Software FACS Diva). Binding curves and EC50 values were obtained using GraphPadPrism6 (FIG. 8A, binding to Jurkat cells, FIG. 8B binding to AsPC-1 cells).

[3] = target: T1, human mesothelin; test: cell-based or functional assay; remark: listed apart in the source
[4] = target: T2, human CD3 (human, UniProt P07766 23-207); test: flow cytometry on Jurkat cells, 3.8 pM-300 nM
T2 construct: also called CD3 epsilon
Description: as §1, §2

T1 sequence (Q13421 296-588): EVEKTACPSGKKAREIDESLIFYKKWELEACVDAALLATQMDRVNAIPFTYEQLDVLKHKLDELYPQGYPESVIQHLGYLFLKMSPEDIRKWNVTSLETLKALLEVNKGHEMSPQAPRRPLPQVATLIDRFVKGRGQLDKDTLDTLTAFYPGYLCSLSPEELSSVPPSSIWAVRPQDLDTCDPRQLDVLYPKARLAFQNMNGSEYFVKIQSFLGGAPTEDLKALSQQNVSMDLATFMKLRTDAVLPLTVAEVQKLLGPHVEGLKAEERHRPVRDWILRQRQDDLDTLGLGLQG
T2 sequence (P07766 23-207 limits assumed): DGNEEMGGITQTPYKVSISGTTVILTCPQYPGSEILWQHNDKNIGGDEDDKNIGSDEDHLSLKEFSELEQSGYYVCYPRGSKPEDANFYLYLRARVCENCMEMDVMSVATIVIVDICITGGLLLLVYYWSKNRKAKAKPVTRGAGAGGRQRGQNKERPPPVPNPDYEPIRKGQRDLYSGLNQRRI

| Binder | EC50 of CD69 up-regulation on CD4 T cells (% CD4+CD69+), AsPC-1 target cells, 48 h (FACS) [1] [nM] | EC50 of CD69 up-regulation on CD4 T cells (% CD4+CD69+), BxPC-3 target cells, 48 h (FACS) [1] [nM] | EC50 of CD69 up-regulation on CD4 T cells (% CD4+CD69+), NCI-H596 target cells, 48 h (FACS) [1] [nM] | EC50 of CD69 up-regulation on CD8 T cells (% CD8+CD69+), AsPC-1 target cells, 48 h (FACS) [1] [nM] | EC50 of CD69 up-regulation on CD8 T cells (% CD8+CD69+), BxPC-3 target cells, 48 h (FACS) [1] [nM] | EC50 of CD69 up-regulation on CD8 T cells (% CD8+CD69+), NCI-H596 target cells, 48 h (FACS) [1] [nM] | EC50 [2] [nM] | EC50 of T-cell mediated lysis of AsPC-1 cells, 48 h (LDH release) [3] [nM] | EC50 of T-cell mediated lysis of BxPC-3 cells, 48 h (LDH release) [3] [nM] | EC50 of T-cell mediated lysis of NCI-H596 cells, 48 h (LDH release) [3] [nM] | binding result [4] |
| --- | --- | --- | --- | --- | --- | --- | --- | --- | --- | --- | --- |
| B1 | 0.167 | ~0.0939 | 0.0388 | 0.146 | ~0.0952 | 0.0609 | 1.79 | 0.145 | 0.115 | 0.182 |  |
| B2 |  |  |  |  |  |  | 0.828 |  |  |  |  |
| B3 | 0.299 | ~0.0958 | 0.0454 | 0.118 | 0.479 | 0.0532 | 4.59 | 0.37 |  | 0.319 | binds |
